Measured values as given in patent US20230057461A1 (US Dept. of Health and Human Services, published 2023).

Target: T1, Rab escort protein REP-1 (UniProt P24386 1-653)
T1 construct: Endogenous protein detected by Western blot (Abcam cat# 134964)
T1 sequence (looked up): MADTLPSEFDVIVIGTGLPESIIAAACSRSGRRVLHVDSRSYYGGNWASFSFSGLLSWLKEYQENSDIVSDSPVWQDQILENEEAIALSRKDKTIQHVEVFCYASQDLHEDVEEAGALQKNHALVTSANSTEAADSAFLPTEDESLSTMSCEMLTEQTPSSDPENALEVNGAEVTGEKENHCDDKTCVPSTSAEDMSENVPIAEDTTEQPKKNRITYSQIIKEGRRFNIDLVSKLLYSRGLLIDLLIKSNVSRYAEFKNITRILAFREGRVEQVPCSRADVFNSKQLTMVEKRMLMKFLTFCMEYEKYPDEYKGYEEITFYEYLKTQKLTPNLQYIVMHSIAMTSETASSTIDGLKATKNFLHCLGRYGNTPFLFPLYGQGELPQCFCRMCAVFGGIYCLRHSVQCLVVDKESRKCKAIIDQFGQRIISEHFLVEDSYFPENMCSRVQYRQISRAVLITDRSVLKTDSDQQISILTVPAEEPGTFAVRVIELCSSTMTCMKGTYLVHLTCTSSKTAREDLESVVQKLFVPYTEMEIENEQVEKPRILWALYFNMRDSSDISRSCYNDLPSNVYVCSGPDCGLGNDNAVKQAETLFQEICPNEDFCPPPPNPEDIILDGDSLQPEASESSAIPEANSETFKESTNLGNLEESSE
Assay: co-immunoprecipitation of GFP-Rab13 with GFP-Trap beads from MDA-MB-231 lysates, Western blot
Description: For immunoprecipitations, cells were lysed with a buffer containing 50mM Tris pH 7.4, 1% NP-40, 150mM NaCl, 10mM MgC12, 10% glycerol and a cocktail of protease and phosphatase inhibitors (Thermo Fischer Scientific, cat# 1861281). Lysates were cleared by centrifugation and mixed with GFP-Trap Magnetic Agarose beads (Chromotek, cat# gtma-10) for 1.5 h, at 4° C. Immobilized complexes were eluted with Laemmli's buffer and analyzed by SDS-PAGE and immunoblotting.

binding result: binds
B1: GFP-Rab13 (N-terminally GFP-tagged human Rab13) (other, UniProt P51153 1-203, looked up, not shown: large carriers)
chain: MAKAYDHLFKLLLIGDSGVGKTCLIIRFAEDNFNNTYISTIGIDFKIRTVDIEGKKIKLQVWDTAGQERFKTITTAYYRGAMGIILVYDITDEKSFENIQNWMKSIKENASAGVERLLLGNKCDMEAKRKVQKEQADKLAREHGIRFFETSAKSSMNVDEAFSSLARDILLKSGGRRSGNGNKPPSTDLKTCDKKNTNKCSLG
notes: Stably expressed in MDA-MB-231 cells from constructs with the wild type or the delta-PMO Rab13 3'UTR; the encoded protein is the same; Assayed from cell lysates; also called exogenous GFP-Rab13; exogenous Rab13
